Experimental data: patent publication US9260500B2, “Peptide and use thereof” (Takeda Pharmaceutical Company Limited, priority 2009, dated 2016)
Starred links: 1 amine or outer side, 2 acyl side, 3 side chain; linkers in the order of their positions; H or OH if unused. Non-standard residues stand in square brackets, D forms with d. Primed or numbered codes have the meaning given here. No end group written: not given here. *: point of attachment. Asn(Me)″ = Nω-methylasparagine, CNC(=O)C[C@H](N[*:1])C(=O)[*:2]; Ala(piperidin-4-yl) = O=C([C@H](CC1CCN([*:3])CC1)N[*:1])[*:2]; β‑HOAla = beta-homoalanine, D or L form; Cyclohexanecarbonyl = O=C(C1CCCCC1)*; Phe(2-Me) = Cc1ccccc1C[C@H](N)C(=O)O; Ala(cPr) = N[C@@H](CC1CC1)C(=O)O; 4Pal = N[C@@H](Cc1ccncc1)C(=O)O; Cha = N[C@@H](CC1CCCCC1)C(=O)O; Gly(N-CH2CH2OH) = O=C(O)CNCCO; d(αMeP) = C[C@]1(C(=O)O)CCCN1; Isobutyryl = CC(C)C(=O)*; Nle = CCCC[C@H](N)C(=O)O; Abu = CC[C@H](N)C(=O)O; Aib = CC(C)(N)C(=O)O; Inp = O=C(O)C1CCNCC1

Assays:
human Y2 receptor [1] = target: T1, human Y2 receptor (Homo sapiens, UniProt P49146); test: Receptor Binding Assay (RBA) for Human Y2, [125I]-PYY displacement on hY2R/CHO membrane fraction; conditions: IC50 of test compound/IC50 of PYY(3-36) (PYY(3-36) taken as 1)
T1 construct: expressed in transfected cells; membrane fraction
T1 sequence (P49146 1-381): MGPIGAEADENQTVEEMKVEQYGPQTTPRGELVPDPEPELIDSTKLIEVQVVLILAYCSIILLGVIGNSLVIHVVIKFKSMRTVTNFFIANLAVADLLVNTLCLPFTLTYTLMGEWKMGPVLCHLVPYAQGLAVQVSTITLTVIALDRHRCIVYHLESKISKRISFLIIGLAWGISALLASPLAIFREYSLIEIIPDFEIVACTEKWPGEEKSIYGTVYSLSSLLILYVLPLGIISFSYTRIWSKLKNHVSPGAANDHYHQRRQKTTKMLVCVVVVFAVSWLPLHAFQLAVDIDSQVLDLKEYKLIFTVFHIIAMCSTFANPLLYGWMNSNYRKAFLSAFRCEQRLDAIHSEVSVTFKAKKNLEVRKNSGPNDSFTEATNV
Outline: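 hY2R stably expressed in CHO/dhfr− cells; membrane fraction prepared from cells disrupted in 10 mM NaHCO3, 5 mM EDTA buffer with protease inhibitors. Binding read as displacement of [125I]-PYY.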

human Y2 receptor [2] = target: T1, human Y2 receptor; test: Human Y2 Receptor G Protein Binding Assay (GBA), [35S]GTPγS; assay type: biochemical; conditions: EC50 of test compound/EC50 of PYY(3-36) (PYY3-36 taken as 1), hY2R/CHO membrane fraction
Outline: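 Agonism measured as [35S]GTPγS binding, read by GF/C filtration and scintillation counting after 120 min at room temperature, using human Y2 membranes at 1 μg protein/mL in pH 7.4 Tris/MgCl2/NaCl/GDP buffer. Compound serially diluted 100 μM–1 nM; EC50 normalized to PYY(3-36) (ratio = compound/PYY).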

| Substance | RBA IC50 Ratio (human Y2 receptor [1]) | GBA EC50 Ratio (human Y2 receptor [2]) |
| --- | --- | --- |
| Isobutanoyl-[Abu26, Cha27,28,36, Ala(cPr)30, Aib31]-PYY(25-36) (Isobutyryl-R[Abu][Cha][Cha]N[Ala(cPr)][Aib]TRQR[Cha]-NH2; SMILES CC[C@H](NC(=O)[C@H](CCCNC(=N)N)NC(=O)C(C)C)C(=O)N[C@@H](CC1CCCCC1)C(=O)N[C@@H](CC1CCCCC1)C(=O)N[C@@H](CC(N)=O)C(=O)N[C@@H](CC1CC1)C(=O)NC(C)(C)C(=O)N[C@H](C(=O)N[C@@H](CCCNC(=N)N)C(=O)N[C@@H](CCC(N)=O)C(=O)N[C@@H](CCCNC(=N)N)C(=O)N[C@@H](CC1CCCCC1)C(N)=O)[C@@H](C)O) [compound No. 80] | 17 | 12 |
| Ac-[D-Pro24, Pya(4)26, Ala(4Pip)27, Aib28,31, Lys30, Cha36]-PYY(23-36) [compound No. 308] (Ac-S[dP]R[4Pal][Ala(piperidin-4-yl)][Aib]NK[Aib]TRQR[Cha]-NH2; SMILES CC(=O)N[C@@H](CO)C(=O)N1CCC[C@@H]1C(=O)N[C@@H](CCCNC(=N)N)C(=O)N[C@@H](Cc1ccncc1)C(=O)N[C@@H](CC1CCNCC1)C(=O)NC(C)(C)C(=O)N[C@@H](CC(N)=O)C(=O)N[C@@H](CCCCN)C(=O)NC(C)(C)C(=O)N[C@H](C(=O)N[C@@H](CCCNC(=N)N)C(=O)N[C@@H](CCC(N)=O)C(=O)N[C@@H](CCCNC(=N)N)C(=O)N[C@@H](CC1CCCCC1)C(N)=O)[C@@H](C)O) | 17 | 11 |
| Isobutanoyl-[D-Pro24, Pya(4)26, Cha27,36, Aib28,31, Lys30]-PYY(23-36) (Isobutyryl-S[dP]R[4Pal][Cha][Aib]NK[Aib]TRQR[Cha]-NH2; SMILES CC(C)C(=O)N[C@@H](CO)C(=O)N1CCC[C@@H]1C(=O)N[C@@H](CCCNC(=N)N)C(=O)N[C@@H](Cc1ccncc1)C(=O)N[C@@H](CC1CCCCC1)C(=O)NC(C)(C)C(=O)N[C@@H](CC(N)=O)C(=O)N[C@@H](CCCCN)C(=O)NC(C)(C)C(=O)N[C@H](C(=O)N[C@@H](CCCNC(=N)N)C(=O)N[C@@H](CCC(N)=O)C(=O)N[C@@H](CCCNC(=N)N)C(=O)N[C@@H](CC1CCCCC1)C(N)=O)[C@@H](C)O) [compound No. 212] | 0.79 | 0.89 |
| Ac-[D-Pro24, Lys(Ac)25, Pya(4)26, Cha27,36, Aib28,31, Lys30]-PYY(23-36) (Ac-S[dP]K(Ac)[4Pal][Cha][Aib]NK[Aib]TRQR[Cha]-NH2; SMILES CC(=O)NCCCC[C@H](NC(=O)[C@H]1CCCN1C(=O)[C@H](CO)NC(C)=O)C(=O)N[C@@H](Cc1ccncc1)C(=O)N[C@@H](CC1CCCCC1)C(=O)NC(C)(C)C(=O)N[C@@H](CC(N)=O)C(=O)N[C@@H](CCCCN)C(=O)NC(C)(C)C(=O)N[C@H](C(=O)N[C@@H](CCCNC(=N)N)C(=O)N[C@@H](CCC(N)=O)C(=O)N[C@@H](CCCNC(=N)N)C(=O)N[C@@H](CC1CCCCC1)C(N)=O)[C@@H](C)O) [compound No. 280] | 6.6 | 4.2 |
| Ac-[D-αMePro24, Cha27,28,36, Aib31]-PYY(23-36) (Ac-S[d(αMeP)]RH[Cha][Cha]NL[Aib]TRQR[Cha]-NH2; SMILES CC(=O)N[C@@H](CO)C(=O)N1CCC[C@]1(C)C(=O)N[C@@H](CCCNC(=N)N)C(=O)N[C@@H](Cc1c[nH]cn1)C(=O)N[C@@H](CC1CCCCC1)C(=O)N[C@@H](CC1CCCCC1)C(=O)N[C@@H](CC(N)=O)C(=O)N[C@@H](CC(C)C)C(=O)NC(C)(C)C(=O)N[C@H](C(=O)N[C@@H](CCCNC(=N)N)C(=O)N[C@@H](CCC(N)=O)C(=O)N[C@@H](CCCNC(=N)N)C(=O)N[C@@H](CC1CCCCC1)C(N)=O)[C@@H](C)O) [compound No. 155] | 4.5 | 2.6 |
| Ac-[D-Pro24, Pya(4)26, Cha27, Aib28,31, Lys30, Phe(2Me)36]-PYY(23-36) (Ac-S[dP]R[4Pal][Cha][Aib]NK[Aib]TRQR[Phe(2-Me)]-NH2; SMILES CC(=O)N[C@@H](CO)C(=O)N1CCC[C@@H]1C(=O)N[C@@H](CCCNC(=N)N)C(=O)N[C@@H](Cc1ccncc1)C(=O)N[C@@H](CC1CCCCC1)C(=O)NC(C)(C)C(=O)N[C@@H](CC(N)=O)C(=O)N[C@@H](CCCCN)C(=O)NC(C)(C)C(=O)N[C@H](C(=O)N[C@@H](CCCNC(=N)N)C(=O)N[C@@H](CCC(N)=O)C(=O)N[C@@H](CCCNC(=N)N)C(=O)N[C@@H](Cc1ccccc1C)C(N)=O)[C@@H](C)O) [compound No. 257] | 1.0 | 0.98 |
| Ac-[D-Pro24, Pya(4)26, Cha27,36, Aib28,31, Trp30]-PYY(23-36) (Ac-S[dP]R[4Pal][Cha][Aib]NW[Aib]TRQR[Cha]-NH2; SMILES CC(=O)N[C@@H](CO)C(=O)N1CCC[C@@H]1C(=O)N[C@@H](CCCNC(=N)N)C(=O)N[C@@H](Cc1ccncc1)C(=O)N[C@@H](CC1CCCCC1)C(=O)NC(C)(C)C(=O)N[C@@H](CC(N)=O)C(=O)N[C@@H](Cc1c[nH]c2ccccc12)C(=O)NC(C)(C)C(=O)N[C@H](C(=O)N[C@@H](CCCNC(=N)N)C(=O)N[C@@H](CCC(N)=O)C(=O)N[C@@H](CCCNC(=N)N)C(=O)N[C@@H](CC1CCCCC1)C(N)=O)[C@@H](C)O) [compound No. 205] | 2.5 | 2.4 |

Continued, values first:

| RBA IC50 Ratio (human Y2 receptor [1]) | GBA EC50 Ratio (human Y2 receptor [2]) | Substance |
| --- | --- | --- |
| 1.9 | 2.0 | Isobutanoyl-[Glu23, D-Pro24, Pya(4)26, Cha27,36, Aib28,31, Lys30]-PYY(23-36) (Isobutyryl-E[dP]R[4Pal][Cha][Aib]NK[Aib]TRQR[Cha]-NH2; SMILES CC(C)C(=O)N[C@@H](CCC(=O)O)C(=O)N1CCC[C@@H]1C(=O)N[C@@H](CCCNC(=N)N)C(=O)N[C@@H](Cc1ccncc1)C(=O)N[C@@H](CC1CCCCC1)C(=O)NC(C)(C)C(=O)N[C@@H](CC(N)=O)C(=O)N[C@@H](CCCCN)C(=O)NC(C)(C)C(=O)N[C@H](C(=O)N[C@@H](CCCNC(=N)N)C(=O)N[C@@H](CCC(N)=O)C(=O)N[C@@H](CCCNC(=N)N)C(=O)N[C@@H](CC1CCCCC1)C(N)=O)[C@@H](C)O) [compound No. 214] |
| 2.3 | 1.3 | Ac-[Glu23, D-Pro24, Nle25, Pya(4)26, Cha27,28,36, Lys30, Aib31]-PYY(23-36) (Ac-E[dP][Nle][4Pal][Cha][Cha]NK[Aib]TRQR[Cha]-NH2; SMILES CCCC[C@H](NC(=O)[C@H]1CCCN1C(=O)[C@H](CCC(=O)O)NC(C)=O)C(=O)N[C@@H](Cc1ccncc1)C(=O)N[C@@H](CC1CCCCC1)C(=O)N[C@@H](CC1CCCCC1)C(=O)N[C@@H](CC(N)=O)C(=O)N[C@@H](CCCCN)C(=O)NC(C)(C)C(=O)N[C@H](C(=O)N[C@@H](CCCNC(=N)N)C(=O)N[C@@H](CCC(N)=O)C(=O)N[C@@H](CCCNC(=N)N)C(=O)N[C@@H](CC1CCCCC1)C(N)=O)[C@@H](C)O) [compound No. 172] |
| 76 | 37 | Cyclohexanecarbonyl-[Cha27,36, Ile28,31, Asn(Me)29]-PYY(25-36) (Cyclohexanecarbonyl-RH[Cha]I[Asn(Me)″]LITRQR[Cha]-NH2; SMILES CC[C@H](C)[C@H](NC(=O)[C@H](CC1CCCCC1)NC(=O)[C@H](Cc1c[nH]cn1)NC(=O)[C@H](CCCNC(=N)N)NC(=O)C1CCCCC1)C(=O)N[C@@H](CC(=O)NC)C(=O)N[C@@H](CC(C)C)C(=O)N[C@H](C(=O)N[C@H](C(=O)N[C@@H](CCCNC(=N)N)C(=O)N[C@@H](CCC(N)=O)C(=O)N[C@@H](CCCNC(=N)N)C(=O)N[C@@H](CC1CCCCC1)C(N)=O)[C@@H](C)O)[C@@H](C)CC) [compound No. 75] |
| 2.0 | 1.2 | [N(2-hydroxyethyl)Gly23, D-Pro24, Cha27,28,36, Aib31]-PYY(23-36) ([Gly(N-CH2CH2OH)][dP]RH[Cha][Cha]NL[Aib]TRQR[Cha]-NH2; N-terminus assumed; SMILES CC(C)C[C@H](NC(=O)[C@H](CC(N)=O)NC(=O)[C@H](CC1CCCCC1)NC(=O)[C@H](CC1CCCCC1)NC(=O)[C@H](Cc1c[nH]cn1)NC(=O)[C@H](CCCNC(=N)N)NC(=O)[C@H]1CCCN1C(=O)CNCCO)C(=O)NC(C)(C)C(=O)N[C@H](C(=O)N[C@@H](CCCNC(=N)N)C(=O)N[C@@H](CCC(N)=O)C(=O)N[C@@H](CCCNC(=N)N)C(=O)N[C@@H](CC1CCCCC1)C(N)=O)[C@@H](C)O) [compound No. 134] |
| 0.85 | 1.9 | Ac-[β-HOAla24, Pya(4)26, Cha27,36, Aib28,31, Lys30]-PYY(23-36) [compound No. 245] (Ac-S[β‑HOAla]R[4Pal][Cha][Aib]NK[Aib]TRQR[Cha]-NH2; also: β-HOAla at position 2: D or L form not settled) |
| 4 | 3.4 | N-4-Pyridiniyl-[Pic(4)23, D-Pro24, Cha27,28,36, Aib31]-PYY(23-36) ([Inp][dP]RH[Cha][Cha]NL[Aib]TRQR[Cha]-NH2; not fully specified (N-terminus); printed as N-4-Pyridiniyl-[Pic(4)23, D-Pro24, Cha27,28,36, Aib31]-PYY(23-36)) [compound No. 125] |
